From PMC7311471, “The iron–sulphur cluster in human DNA2 is required for all biochemical activities of DNA2”

T1: DNA2 D277A (human, UniProt P51530 1-1060, D277A)
T1 sequence: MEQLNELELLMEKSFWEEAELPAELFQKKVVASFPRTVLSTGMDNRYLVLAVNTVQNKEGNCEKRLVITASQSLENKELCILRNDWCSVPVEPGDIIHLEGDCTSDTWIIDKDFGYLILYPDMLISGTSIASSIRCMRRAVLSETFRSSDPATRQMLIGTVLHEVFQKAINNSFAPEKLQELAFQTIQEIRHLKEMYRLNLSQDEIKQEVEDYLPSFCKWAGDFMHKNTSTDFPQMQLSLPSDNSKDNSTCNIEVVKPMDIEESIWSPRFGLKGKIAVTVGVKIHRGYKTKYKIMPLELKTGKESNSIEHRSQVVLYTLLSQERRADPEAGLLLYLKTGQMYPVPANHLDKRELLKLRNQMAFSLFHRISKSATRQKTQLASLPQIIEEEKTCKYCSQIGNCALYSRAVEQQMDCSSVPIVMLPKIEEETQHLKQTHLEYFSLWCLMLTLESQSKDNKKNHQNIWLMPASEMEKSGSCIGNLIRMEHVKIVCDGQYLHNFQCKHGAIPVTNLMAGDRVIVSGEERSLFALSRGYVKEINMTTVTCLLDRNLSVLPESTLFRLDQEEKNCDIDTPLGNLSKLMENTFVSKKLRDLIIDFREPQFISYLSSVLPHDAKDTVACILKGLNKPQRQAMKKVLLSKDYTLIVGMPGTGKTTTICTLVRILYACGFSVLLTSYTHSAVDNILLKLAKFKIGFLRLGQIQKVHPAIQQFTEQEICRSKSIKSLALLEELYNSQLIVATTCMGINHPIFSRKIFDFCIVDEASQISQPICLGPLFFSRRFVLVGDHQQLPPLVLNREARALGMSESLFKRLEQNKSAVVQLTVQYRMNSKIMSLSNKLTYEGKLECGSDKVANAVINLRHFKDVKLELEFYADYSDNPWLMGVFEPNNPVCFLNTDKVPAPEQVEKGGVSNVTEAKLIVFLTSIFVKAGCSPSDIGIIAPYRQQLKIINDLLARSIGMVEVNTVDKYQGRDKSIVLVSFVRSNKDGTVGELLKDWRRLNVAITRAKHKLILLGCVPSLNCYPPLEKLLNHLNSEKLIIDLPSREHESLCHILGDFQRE

B1: 5' flap (FAM) (mixed)
DNA 1: ATCGATAGTCGGATCCTCTAGACAGCTCCATGTAGCAAGGCACTGGTAGAATTCGGCAGCGT
DNA 2: GACGCTGCCGAATTCTACCAGTGCCTTGCTAGGACATCTTTGCCCACCTGCAGGTTCACCC
DNA 3: TGGGTGAACCTGCAGGTGGGCAAAGATGTCC
B2: Y-structure (32P) (mixed)
DNA 1: ATCGATAGTCGGATCCTCTAGACAGCTCCATGTAGCAAGGCACTGGTAGAATTCGGCAGCGT
DNA 2: GACGCTGCCGAATTCTACCAGTGCCTTGCTAGGACATCTTTGCCCACCTGCAGGTTCACCC

How the values were obtained:
DNA2 D277A [1] = biological target: T1, DNA2 D277A; experiment: EMSA; similar affinity as WT; EMSA: 25 mM Tris-HCl pH 8.0, 0.1 mg/ml BSA, 5 mM EDTA, with or without 1 mM DTT, 30 min on ice; 4-5 nM FAM-DNA or 1 nM 32P-DNA; settings: protein: recombinant; tags: FLAG; 5' flap 32 nt on strand 1; 1:2 and 2:3 paired
DNA2 D277A [2] = biological target: T1, DNA2 D277A; experiment: EMSA; EMSA: 25 mM Tris-HCl pH 8.0, 0.1 mg/ml BSA, 5 mM EDTA, with or without 1 mM DTT, 30 min on ice; 4-5 nM FAM-DNA or 1 nM 32P-DNA; settings: protein: recombinant; tags: FLAG; label: 3' 32P cordycepin on X04; fork 1:2, 5' arm 32 nt, 3' arm 30 nt

| Binder | binding result (DNA2 D277A [1]) | binding result (DNA2 D277A [2]) |
| --- | --- | --- |
| B1 | binds | – |
| B2 | – | binds |
